In patent US20190352359A1 (IMMATICS BIOTECHNOLOGIES, published 2019):

biological target: T1, HLA-A*24; experiment: UV peptide-exchange ELISA (anti-b2m); yield grade ++++ = >75%
T1 construct: Monomers captured on streptavidin plates; also called peptide-receptive MHC molecules; MHC complexes
Source text: Candidate peptides for T cell based therapies according to the present invention were further tested for their MHC binding capacity (affinity). The individual peptide-MHC complexes were produced by UV-ligand exchange, where a UV-sensitive peptide is cleaved upon UV-irradiation, and exchanged with the peptide of interest as analyzed. Only peptide candidates that can effectively bind and stabilize the peptide-receptive MHC molecules prevent dissociation of the MHC complexes. To determine the yield of the exchange reaction, an ELISA was performed based on the detection of the light chain (p2m) of stabilized MHC complexes. The assay was performed as generally described in Rodenko et al. (Rodenko et al., 2006)
96 well MAXISorp plates (NUNC) were coated over night with 2 ug/ml streptavidin in PBS at room temperature, washed 4× and blocked for 1 h at 37° C. in 2% BSA containing blocking buffer. Refolded HLA-A*02:01/MLA-001 monomers served as standards, covering the range of 15-500 ng/ml. Peptide-MHC monomers of the UV-exchange reaction were diluted 100-fold in blocking buffer. Samples were incubated for 1 h at 37° C., washed four times, incubated with 2 ug/ml HRP conjugated anti-β2m for 1h at 37° C., washed again and detected with TMB solution that is stopped with […]. Absorption was measured at 450 nm. Candidate peptides that show a high exchange yield (preferably higher than 50%, most preferred higher than 75%) are generally preferred for a generation and production of antibodies or fragments thereof, and/or T cell receptors or fragments thereof, as they show sufficient avidity to the MHC molecules and prevent dissociation of the MHC complexes.

Peptide exchange yield, > 75%:
IYMTTGVLL (also called IYMTTGVLL) [TDRD9-002], GYFGTASLF (also called GYFGTASLF) [SLC16A14-001], EYQQYHPSL (also called EYQQYHPSL) [CLEC4C-001], RYLEEHTEF (also called RYLEEHTEF) [MROH2A-003], IYANVTEMLL (also called IYANVTEMLL) [CYP27C-001], KWKPSPLLF (also called KWKPSPLLF) [GPR126-002], PEYSLPVLTF (also called PEYSLPVLTF) [PTP-040], EVYQKIILKF (also called EVYQKIILKF) [PASD-001], NYMDTDNLMF (also called NYMDTDNLMF) [LOC1001246-002], FYPEVELNF (also called FYPEVELNF) [MMP1-009], AYVTEFVSL (also called AYVTEFVSL) [SCN3A-001], VYTVGHNLI (also called VYTVGHNLI) [KLB-003], VYAVISNIL (also called VYAVISNIL) [TNR-003], IFMENAFEL (also called IFMENAFEL) [APOB-079], RFLDRGWGF (also called RFLDRGWGF) [ADAMTS12-005], RYILEPFFI (also called RYILEPFFI) [SLC7A11-007], AYFVAMHLF (also called AYFVAMHLF) [TENM4-007], VHMKDFFYF (also called VHMKDFFYF) [DYRK4-001], SYPKELMKF (also called SYPKELMKF) [MROH2A-004], KYNRQSMTL (also called KYNRQSMTL) [APOB-080], RYADLLIYTY (also called RYADLLIYTY) [MYO3B-005], YYAADQWVF (also called YYAADQWVF) [CCR4-004], AAFISVPLLI (also called AAFISVPLLI) [TAS2R38-002], AFISVPLLI (also called AFISVPLLI) [TAS2R38-003], VYCSLDKSQF (also called VYCSLDKSQF) [RTL-004], KFLGSKCSF (also called KFLGSKCSF) [HAS3-003], KLPTEWNVL (also called KLPTEWNVL) [AKAP13-005], RYQSVIYPF (also called RYQSVIYPF) [AGTR2-002], FYIRRLPMF (also called FYIRRLPMF) [CHRNA6-001], IYLVGGYSW (also called IYLVGGYSW) [KLHL14-007], VYNNNSSRF (also called VYNNNSSRF) [MYO10-003], FWFDSREISF (also called FWFDSREISF) [OR51E2-002], IYTDITYSF (also called IYTDITYSF) [CHRNA6-002], LYHNWRHAF (also called LYHNWRHAF) [PDE11-002], VYLASVAAF (also called VYLASVAAF) [SLC45A3-006], NFYLFPTTF (also called NFYLFPTTF) [PNLD-001], LYITKVTTI (also called LYITKVTTI) [FSTL4-002], FYQPDLKYLSF (also called FYQPDLKYLSF) [NLRP4-003], IYLLLPPVI (also called IYLLLPPVI) [OR51E2-004], NYSPVTGKF (also called NYSPVTGKF) [OTOL-001], TYIDFVPYI (also called TYIDFVPYI) [TEX15-001], QYIPTFHVY (also called QYIPTFHVY) [SLC44A5-003], KYVGEVFNI (also called KYVGEVFNI) [DMXL1-001], SFISPRYSWLF (also called SFISPRYSWLF) [SPNS3-005], EYIDEFQSL (also called EYIDEFQSL) [RTL-003], HWSHITHLF (also called HWSHITHLF) [DPY19L1-003], DYIQMIPEL (also called DYIQMIPEL) [RTL-002], KMGRIVDYF (also called KMGRIVDYF) [GABRP-003], VYLTWLPGL (also called VYLTWLPGL) [IFNLR-001], RYENVSILF (also called RYENVSILF) [ADCY8-001], RYAHTLVTSVLF (also called RYAHTLVTSVLF) [ITIH6-003], VYDYIPLLL (also called VYDYIPLLL) [MROH2A-005], KFLTHDVLTELF (also called KFLTHDVLTELF) [TRPM8-009], YFLPGPHYF (also called YFLPGPHYF) [SOX30-001], VYSDLHAFY (also called VYSDLHAFY) [MANEAL-004], VYKWTEEKF (also called VYKWTEEKF) [TSPE-001], IFMGAVPTL (also called IFMGAVPTL) [LPAR3-001], QYGFNYNKF (also called QYGFNYNKF) [PNLD-002], TYETVMTFF (also called TYETVMTFF) [BTBD16-003], MYGIVIRTI (also called MYGIVIRTI) [NPSR-001], IQNAILHLF (also called IQNAILHLF) [OR51B5-001]
